In general, Kd refers to the constant that tells how readily two partners part at equilibrium. Low values mean tighter binding, high ones weaker binding. A word on the koff: it is the rate constant with which the complex falls apart. Read a high koff as a short-lived complex. Broadly, the kon is the second-order rate constant of association. Low values mean slow association, high ones fast association.

Residue numbers refer to the chain shown, from its start.

B1: huR12_11, humanized from R12 (antibody, V domains shown)
VH: QVQLVESGGALVQPGGSLTLSCKASGFDFSAYYMSWVRQAPGKGLEWIATIYPSSGKTYYAASVQGRFTISADNAKNTVYLQMNSLTAADTATYFCARDSYADDGALFNIWGQGTLVTVSS
VL: QLVLTQSPSVSAALGSSAKITCTLSSAHKTDTIDWYQQLAGQAPRYLMYVQSDGSYEKRSGVPDRFSGSSSGADRYLIISSVQADDEADYYCGADYIGGYVFGGGTQLTVG
B2: huR12_7, humanized from R12 (antibody, V domains shown)
VH: B1 VH with A10E, Y80S, Q113K
VL: QLVLTQSPSVSAALGSSAKITCTLSSAHKTDTIDWYQQLAGQAPRYLMYVQSDGSYEKRSGVPDRFSGSSSGADRYLIISSVQADDEADYYCGADYIGGYVFGGGTQLTVLG
B3: huR12_4, humanized from R12 (antibody, V domains shown)
VH: B1 VH with A10E, Q113K
VL: B2 VL with S70A, I78A, S81R
B4: huR12_16, humanized from R12 (antibody, V domains shown)
VH: B1 VH with A10E, Q13T, T50S, S63A
VL: B1 VL
B5: Chimeric mAb R12 (antibody, V domains shown)
VH: QEQLVESGGRLVTPGGSLTLSCKASGFDFSAYYMSWVRQAPGKGLEWIATIYPSSGKTYYATWVNGRFTISSDNAQNTVDLQMNSLTAADRATYFCARDSYADDGALFNIWGPGTLVTISS
VL: B1 VL with Q1E, S17P, A40Q, Q42E, Y49Q, E57T, S60P, S80P, G111T
B6: chimeric mAb 2A2 (antibody, V domains shown)
VH: QVQLQQSGAELVRPGASVTLSCKASGYTFSDYEMHWVIQTPVHGLEWIGAIDPETGGTAYNQKFKGKAILTADKSSSTAYMELRSLTSEDSAVYYCTGYYDYDSFTYWGQGTLVTVSA
VL: DIVMTQSQKIMSTTVGDRVSITCKASQNVDAAVAWYQQKPGQSPKLLIYSASNRYTGVPDRFTGSGSGTDFTLTISNMQSEDLADYFCQQYDIYPYTFGGGTKLEIK
B7: rbQ11, humanized from R11 (antibody, V domains shown)
VH: EVQLVQSGGGLVQPGGSLRLSCAASGSDINDYPISWVRQAPGKGLEWVSFINSGGSTWYASWVKGRFTISRDNAKNSLYLQMNSLRDDDTATYFCARGYSTYYGDFNIWGQGTLVTVSS
VL: DIVMTQSPSSLSASVGDRVTITCQASQSIDSNLAWFQQKPGKAPKSLIYRASNLASGVPSKFSGSGSGTDFTLTISSLQREDAATYYCLGGVGNVSYRTSFGGGTKVEIK
B8: rbQ12, humanized from R11 (antibody, V domains shown)
VH: B7 VH with Q6E, D87A, L114M
VL: B7 VL with D1E, K45N, S46L, K61R, D70E, G103Q
B9: rbD4, humanized from R11 (antibody, V domains shown)
VH: EVQLVESGGGLVQPGRSLRLSCTASGSDINDYPISWFRQAPGKGLEWVGFINSGGSTWYASWVKGRFTISRDDSKSIAYLQMNSLKTDDTATYFCARGYSTYYGDFNIWGQGTTVTVSS
VL: B7 VL with I2V, K45N, S46L, K61R, D70E, G103Q
B10: hu2A2-D23, humanized from 2A2 (antibody, V domains shown)
VH: QVQLVESGAEVKKPGASVKLSCKASGYTFSDYEMHWVRQAPGQRLEWMGAIDPETGGTAYNQKFKGRVTITVDKSASTAYMELSSLRSEDTAVYYCTGYYDYDSFTYWGPGTTVTVSS
VL: DIVMTQSPSTLSASVGDRVTITCKASQNVDAAVAWYQQKPGTAPKLLIYSASNRYTGVPSRFSGSGSGTEFTLTISSLQSEDLADYFCQQYDIYPYTFGQGTKLEIK
B11: hu2A2b-Q11, humanized from 2A2 (antibody, V domains shown)
VH: EVQLVQSGAEVKKPGASVKVSCKASGYTFSDYEMHWVRQAPGQGLEWLGAIDPETGGTAYNQKFKGRVTMTGDTSISTAYMELSRLTSDDTAVYYCTGYYDYDSFTYWGQGTLVSVSS
VL: B10 VL with V3Q, T10S, A13T, T42K, P59A, E70D, L73F
B12: hu2A2-D16, humanized from 2A2 (antibody, V domains shown)
VH: B11 VH with Q6E, L48V, G72R, I76T, A79V, R85S, T87R, D89E, S115T
VL: B10 VL with V3Q, T10S, T42K, V58I, S60T, E70D, L104V
B13: chimeric mAb R11 (antibody, V domains shown)
VH: QSVKESEGDLVTPAGNLTLTCTASGSDINDYPISWVRQAPGKGLEWIGFINSGGSTWYASWVKGRFTISRTSTTVDLKMTSLTTDDTATYFCARGYSTYYGDFNIWGPGTLVTISS
VL: ELVMTQTPSSTSGAVGGTVTINCQASQSIDSNLAWFQQKPGQPPTLLIYRASNLASGVPSRFSGSRSGTEYTLTISGVQREDAATYYCLGGVGNVSYRTSFGGGTEVVVK

In the first experiment the target is T1, StrepII-tagged ROR1-extracellular domain (human, UniProt Q01973). The experiment is described as follows: SPR (Biacore T200), IgG from HEK293T supernatant captured by anti-human Fc, ROR1-strep as analyte, 1:1 model. The procedure: For initial determination of huR12 clone affinities and parental R12 using transient HEK293T supernatants, IgG expression vectors were transiently transfected into 293T cells and IgG titers in supernatants were quantified by ELISA. For SPR, supernatants were diluted to 1 µg/ml IgG with running buffer (HBS-EP+pH 7.4 (10 mM HEPES, 150 mM NaCl, 3 mM EDTA, 0.05% Tween® 20)) and captured for 200s with a flow of 30 µl/min. ROR1-strep was diluted in running buffer using 2-fold serial dilutions ranging from 20 nM to 2.5 nM. Association was measured at a flow of 30 µl/min for 120s, and dissociation was followed for 1000s. Capture levels ranged from 26.9 RU to 54.1 RU.
T1 sequence (Q01973 other isoform, or with tags, fused parts or gaps): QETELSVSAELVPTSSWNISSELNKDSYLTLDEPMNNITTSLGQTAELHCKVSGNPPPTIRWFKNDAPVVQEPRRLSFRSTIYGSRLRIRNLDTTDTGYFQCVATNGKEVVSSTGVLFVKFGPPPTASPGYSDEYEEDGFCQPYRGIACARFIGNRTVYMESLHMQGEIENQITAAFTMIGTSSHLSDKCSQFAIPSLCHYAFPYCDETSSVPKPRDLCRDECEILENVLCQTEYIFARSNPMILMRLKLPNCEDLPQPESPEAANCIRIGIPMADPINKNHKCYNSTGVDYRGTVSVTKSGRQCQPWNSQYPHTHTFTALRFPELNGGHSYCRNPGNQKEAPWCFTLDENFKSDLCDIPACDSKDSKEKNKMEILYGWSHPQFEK
(In general: In SPR one partner is held on a chip, and binding of the other changes the refractive index at the surface.)
Take B1: the Kd was determined as 0.084 nM, the koff amounted to 9.65e-05 s⁻¹ and the association rate constant (kon) was 1.15e+06 M⁻¹ s⁻¹.
On to B2, for which the affinity, expressed as Kd, was 0.11 nM; the koff amounted to 0.000116 s⁻¹; the kon was found to be 1.05e+06 M⁻¹ s⁻¹.
In the case of B3, binding was characterised by a dissociation constant (Kd) of 0.091 nM, the koff was found to be 9.93e-05 s⁻¹ and the kon stood at 1.09e+06 M⁻¹ s⁻¹.
On the same counts, the results for B4 are 0.092 nM, 8.79e-05 s⁻¹ and 960000 M⁻¹ s⁻¹.
On the same counts, the results for B5 are 1.03 nM, 0.000361 s⁻¹ and 349000 M⁻¹ s⁻¹.

The target of a further experiment is T1, StrepII-tagged ROR1-extracellular domain. The experiment can be described thus: SPR (Biacore T200), purified mAb captured by anti-human Fc, ROR1-strep as analyte, 1:1 model.
As to B6, binding was put at a Kd of 5.7 nM, the koff is 0.00968 s⁻¹ and the kon worked out at 1.69e+06 M⁻¹ s⁻¹.
B7 returned a Kd of 6.1 nM, a dissociation rate constant (koff) of 0.00498 s⁻¹ and an association rate constant (kon) of 821000 M⁻¹ s⁻¹.
On the same counts, the results for B8 are 14.2 nM, 0.0104 s⁻¹ and 733000 M⁻¹ s⁻¹.
B9 gave an equilibrium dissociation constant (Kd) of 9 nM, a dissociation rate constant (koff) of 0.0071 s⁻¹ and a kon of 785000 M⁻¹ s⁻¹.
In the case of B10, binding was characterised by a dissociation constant (Kd) of 8 nM, the koff was 0.0138 s⁻¹ and the kon worked out at 1.72e+06 M⁻¹ s⁻¹.
Molecule B11 gave a Kd of 9.9 nM, an off-rate (koff) of 0.0173 s⁻¹ and an on-rate (kon) of 1.75e+06 M⁻¹ s⁻¹.
The molecule B12 showed a dissociation constant (Kd) of 10.9 nM, an off-rate constant (koff) of 0.0189 s⁻¹ and a kon of 1.73e+06 M⁻¹ s⁻¹.
On the same counts, the results for B13 are 3.4 nM, 0.00328 s⁻¹ and 957000 M⁻¹ s⁻¹.
